The target in this experiment is Drosophila Slit D1-4 (the four leucine-rich repeat domains) (Drosophila). The experiment can be described thus: ELISA.

A value given as a limit tells only on which side of the number the result lay.

For one substance, fold increase of the apparent affinity with 10 μg/ml heparin against no heparin results are on record in publication PMC3680705.

Drosophila Slit D1-4 (the four leucine-rich repeat domains) (Drosophila), sequence (P24014 64-922): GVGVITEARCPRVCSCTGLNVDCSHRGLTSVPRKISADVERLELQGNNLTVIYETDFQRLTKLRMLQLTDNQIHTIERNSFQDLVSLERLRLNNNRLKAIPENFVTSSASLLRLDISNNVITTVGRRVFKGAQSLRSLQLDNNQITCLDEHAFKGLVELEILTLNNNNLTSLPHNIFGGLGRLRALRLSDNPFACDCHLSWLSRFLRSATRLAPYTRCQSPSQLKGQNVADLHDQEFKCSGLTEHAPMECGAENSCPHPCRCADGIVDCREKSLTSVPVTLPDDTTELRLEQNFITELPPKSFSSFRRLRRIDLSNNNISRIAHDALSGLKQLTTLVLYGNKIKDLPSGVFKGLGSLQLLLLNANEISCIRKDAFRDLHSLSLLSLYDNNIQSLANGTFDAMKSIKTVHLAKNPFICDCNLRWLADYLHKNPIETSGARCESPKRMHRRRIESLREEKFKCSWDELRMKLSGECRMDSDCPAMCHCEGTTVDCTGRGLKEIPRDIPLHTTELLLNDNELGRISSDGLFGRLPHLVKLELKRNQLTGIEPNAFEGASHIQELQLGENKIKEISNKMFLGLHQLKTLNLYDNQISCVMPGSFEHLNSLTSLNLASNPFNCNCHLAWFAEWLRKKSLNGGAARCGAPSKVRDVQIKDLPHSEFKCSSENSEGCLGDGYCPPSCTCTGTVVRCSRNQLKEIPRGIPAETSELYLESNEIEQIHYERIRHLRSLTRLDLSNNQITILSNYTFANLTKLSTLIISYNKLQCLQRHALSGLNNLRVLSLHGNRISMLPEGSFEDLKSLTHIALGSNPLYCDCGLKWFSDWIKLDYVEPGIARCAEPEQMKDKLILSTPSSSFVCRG

For Drosophila Robo IG1–5 Fc (Fc fusion), the fold increase of the apparent affinity with 10 μg/ml heparin against no heparin is over 10 fold.
